As usually defined, the stoichiometry N is the number of molecules, sites or subunits per partner or assembly.

From PMC12561426, “Dissecting the Interplay Between NRF2 and BACH1 at CsMBEs” (Antioxidants, 2025) come the findings set out here.

Series [1] deals with T1, sMafG^DBD released by TEV from NRF2-sMafGχ or BACH1-sMafGχ (human, UniProt O15525 1-162).
T1 construct: small Maf protein G (sMafG), human, residues 1-162, the C-terminal half of the chimeric constructs; also called sMafG of NRF2/sMafG and BACH1/sMafG; sMafG^DBDχ; source: E. coli One Shot BL21 Star (DE3), purified as the chimera (HisTrap, heparin, SEC); cut from the chimera by 3C and TEV in the assay; not shown: linker with 6xHis and TEV site, N-terminal, cleaved
In words: native gel or EMSA; chimeric constructs (0-300 nM) titrated on fluorescein-labelled CsMBE dsDNA (3 nM) with TEV and 3C proteases 4 h at 25 C; 150 mM NaCl, 50 mM HEPES pH 7.9, 10% glycerol, 1 mM TCEP, 1 mM DTT, 2 mM MgCl2; 6% non-denaturing gel; heterodimer on DNA. The conditions noted are these: both partners purified.

The target of series [2] is T2, sMafG^YbbR (fluorescein-labelled sMafG^DBD-YbbR released by TEV from NRF2-TEV-sMafGχ^YbbR or … (human, UniProt O15525 1-162, fluorescein (CoA-fluorescein conjugate put on the YbbR tag by Sfp))).
T2 construct: small Maf protein G (sMafG), human, residues 1-162, the C-terminal half of the chimeric constructs; source: cut from the chimera by TEV in the assay; not shown: linker with 6xHis and TEV site, N-terminal, cleaved
In words: native gel or EMSA; competition: fluorescein-labelled chimera (150 nM) assembled on Cy5-labelled dsDNA (3 nM) with TEV and 3C 4 h at 25 C, then the DBD competitor (150 nM-1.5 uM) added, overnight at 4 C; 10% non-denaturing gel, Cy5 and fluorescein scans. The note with it: both partners purified. For orientation: A gel shift assay detects complexes by their altered migration in electrophoresis.

Series [3] deals with the molecule itself. In words: SEC-MALS; Superdex 75 increase 10/300, 50 mM HEPES pH 7.9, 2 mM TCEP, 500 mM NaCl, 1-2 mg protein injected; without DNA.

B1: BACH1^DBD released by 3C from BACH1-sMafGχ (domain or fragment)
chain: not shown
notes: also called BACH1 of BACH1/sMafG; source: E. coli One Shot BL21 Star (DE3), purified as the chimera (HisTrap, heparin, SEC); cut from the chimera by 3C and TEV in the assay; not shown: linker with 3C site and 6xHis, C-terminal, cleaved
With B1, the binding result in series [1] is listed as “binds”.

B2: BACH1^DBD with the uncleaved 6xHis linker (released by TEV from BACH1-TEV-sMafGχ^YbbR) (domain or fragment)
chain: not shown
notes: The linker stays on this chain and gives the supershift; also called BACH1^DBD-6xHis-TEV; BACH1 of BACH1/sMafG^YbbR; source: cut from the chimera by TEV in the assay; not shown: linker with 6xHis (3C site removed, up to the TEV site), C-terminal, kept
For the molecule B2, the binding result in series [2] is listed as “binds”.

B3: NRF2^DBD with the uncleaved 6xHis linker (released by TEV from NRF2-TEV-sMafGχ^YbbR) (domain or fragment, human, UniProt Q16236 451-567, looked up)
chain: EAHLTRDELRAKALHIPFPVEKIINLPVVDFNEMMSKEQFNEAQLALIRDIRRRGKNKVAAQNCRKRKLENIVELEQDLDHLKDEKEKLLKEKGENDKSLHLLKKQLSTLYLEVFSM
notes: The linker stays on this chain and gives the supershift; also called NRF2^DBD-6xHis-TEV; NRF2 of NRF2/sMafG^YbbR; source: cut from the chimera by TEV in the assay; not shown: linker with 6xHis (3C site removed, up to the TEV site), C-terminal, kept
As to B3, the binding result in series [2] was “binds”.

B4: NRF2^DBD released by 3C from NRF2-sMafGχ (domain or fragment, human, UniProt Q16236 451-567, looked up)
chain: EAHLTRDELRAKALHIPFPVEKIINLPVVDFNEMMSKEQFNEAQLALIRDIRRRGKNKVAAQNCRKRKLENIVELEQDLDHLKDEKEKLLKEKGENDKSLHLLKKQLSTLYLEVFSM
notes: also called NRF2 of NRF2/sMafG; source: E. coli One Shot BL21 Star (DE3), purified as the chimera (HisTrap, heparin, SEC); cut from the chimera by 3C and TEV in the assay; not shown: linker with 3C site and 6xHis, C-terminal, cleaved
For the molecule B4, the binding result in series [1] is recorded as “binds”.

B5: NRF2^DBD (domain or fragment, human, UniProt Q16236 451-567, looked up)
chain: EAHLTRDELRAKALHIPFPVEKIINLPVVDFNEMMSKEQFNEAQLALIRDIRRRGKNKVAAQNCRKRKLENIVELEQDLDHLKDEKEKLLKEKGENDKSLHLLKKQLSTLYLEVFSM
notes: The His-tag is called cleavable; TEV and 3C proteases were present in the EMSA samples; also called NRF2^DBD-3C-6xHis; source: E. coli One Shot BL21 Star (DE3), purified (His-tag purification, heparin)
For B5, the binding result in series [2] is listed as “binds”.

B6: BACH1^DBD (domain or fragment)
chain: not shown
notes: The His-tag is called cleavable; TEV and 3C proteases were present in the EMSA samples; also called BACH1^DBD-3C-6xHis; source: E. coli One Shot BL21 Star (DE3), purified (HisTrap, heparin, SEC)
For the molecule B6, the “stoichiometry N” value in series [3] amounted to 2. Moreover, in series [2], the binding result is given as “binds”.
